Measured values as given in the supplement of paper PMC7877785.
± gives the uncertainty stated by the source.

Experiment: self-splicing fitness, log relative to wild type (ln ratio); higher = more splicing; Tetrahymena group I intron in knt gene, E. coli kanamycin selection, DiMSum; sequences stand for … in CUCUCU…GGAGGGAAAAGUUAUCAGGCAUGCACCUGGUAGCUAGUCUUUAAACCAAUAGAUUGCAUCGGUUUAAAAGGCAAGACCGUCAAAUUGCGGGAAAGGGGUCAACAGCCGUUCAGUACCAAGUCUCAGGGGAAACUUUGAGAUGGCCUUGCAAAGGGUAUGGUAAUAAGCUGACGGACAUGGUCCUAACCACGCAGCCAAGUCCUAAGUCAACAGAUCUUCUGUUGAUAUGGAUGCAGUUCACAGACUAAAUGUCGGUCGGGGAAGAUGUAUUCUUCUCAUAAGAUAUAGUCGGACCUCUCCUUAAUGGGAGCUAGCGGAUGAAGUGAUGCAACACUGGAGCCGCUGGGAACUAAUUUGUAUGCGAAAGUAUAUUGAUUAGUUUUGGAGUACUCGUGGUCG
Outline: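 Pooled colonies went to amplicon sequencing on an Illumina HiSeq 2500 after six replicate transformations. The plates were LB agar with 100 μg/mL carbenicillin, 50 μM IPTG and 0.2% rhamnose, with or without 25 μg/mL kanamycin, incubated overnight at 37°C or 30°C. The E. coli BL21(DE3) library had all eight P1ex-region intron nucleotides randomised, the intron placed in the knt kanamycin-resistance gene on pET-22b(+). DiMSum fitness is the error-weighted combination of replicate fold changes, kanamycin against none, normalised to wild type.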

| Sequence | self-splicing fitness (ln) (30 °C) | self-splicing fitness (ln) (37 °C) |
| --- | --- | --- |
| GAGUAGCAAUAUUACGAUGA | -1.87 ± 0.2 | -2.22 ± 0.23 |
| GAGUAGCAAUAUUACGCAAG | -3.43 ± 0.26 | -0.127 ± 0.1 |
| GAGUAGCAAUAUUACGCAUA | -2.47 ± 0.25 | -1.54 ± 0.24 |
| GAGUAGCAAUAUUACGCGAG | -3.35 ± 0.16 | -0.947 ± 0.1 |
| GAGUAGCAAUAUUACGCGCC | -1.42 ± 0.3 | -0.361 ± 0.29 |
| GAGUAGCAAUAUUACGCGCG | -0.178 ± 0.21 | -1 ± 0.2 |
| GAGUAGCAAUAUUACGCGGG | -3.59 ± 0.2 | -2.55 ± 0.16 |
| GAGUAGCAAUAUUACGCUCA | -0.591 ± 0.15 | -0.761 ± 0.15 |
| GAGUAGCAAUAUUACGGCCU | -0.381 ± 0.12 | 0.808 ± 0.19 |
| GAGUAGCAAUAUUACGGGAG | -2.18 ± 0.19 | -3.1 ± 0.24 |
| GAGUAGCAAUAUUACGGGAU | -3.73 ± 0.33 | -2.96 ± 0.35 |
| GAGUAGCAAUAUUACGGGGA | -2.51 ± 0.14 | -2.45 ± 0.2 |
| GAGUAGCAAUAUUACGGUCA | -0.51 ± 0.12 | 0.0478 ± 0.12 |
| GAGUAGCAAUAUUACGUAAU | -2.16 ± 0.13 | -2.38 ± 0.16 |
| GAGUAGCAAUAUUACGUAGG | -3.9 ± 0.24 | -1.81 ± 0.17 |
| GAGUAGCAAUAUUACGUCGA | -1.43 ± 0.15 | -0.114 ± 0.14 |
| GAGUAGCAAUAUUACGUCUG | -0.699 ± 0.12 | -0.363 ± 0.15 |
| GAGUAGCAAUAUUACGUGCC | -1.79 ± 0.23 | -0.846 ± 0.18 |
| GAGUAGCAAUAUUACGUGGU | -3.48 ± 0.25 | -0.852 ± 0.29 |
| GAGUAGCAAUAUUACGUGUA | -2.97 ± 0.11 | -1.35 ± 0.1 |
| GAGUAGCAAUAUUACGUUUC | -2.82 ± 0.18 | -2.54 ± 0.27 |
| GAUAAGCAAUAUUACGAAAA | -2.98 ± 0.17 | -2.47 ± 0.2 |
| GAUAAGCAAUAUUACGAAUC | -3.17 ± 0.25 | -2.16 ± 0.25 |
